Results from FireProtDB (doi:10.1016/j.bpc.2007.01.004).
Where “and” joins values, the source holds several entries; their conditions need not be identical. Equal entries are not always repeated.

Conditions: Alicyclobacillus acidocaldarius subsp. acidocaldarius, pH 7.5, Phosphate 20 mM, reversible: Yes; for denaturant midpoint (higher = more stable): 20 °C

**Q.** For wild type (from UniProt Q7SIG1), which “denaturant midpoint (higher = more stable)” value (“denaturant midpoint” for short) (GdnHCl, CD) is on record?
**A.** 1.9 M and 2.2 M

**Q.** What about the “denaturant midpoint” value (GdnHCl, Fluorescence) of the same substance?
**A.** 1.9 M and 2 M and 2.2 M

**Q.** And the “denaturant midpoint” value (Urea, CD)?
**A.** 5.9 M and 4.6 M

**Q.** What about the Tm (Thermal, CD) of the same substance?
**A.** 91 °C and 86 °C

**Q.** What about the “unfolding enthalpy (van 't Hoff)” value (Thermal, CD) of the same substance?
**A.** 105 kcal/mol and 122 kcal/mol and 62.1 kcal/mol

**Q.** And the Tm (Thermal, DSC)?
**A.** 86 °C

**Q.** And the “heat capacity change of unfolding” value (Thermal, DSC)?
**A.** 3.82 kcal/mol/K

**Q.** And the “unfolding enthalpy (calorimetric)” value (Thermal, DSC)?
**A.** 265 kcal/mol and 179 kcal/mol

**Q.** And the “unfolding enthalpy (van 't Hoff)” value (Thermal, DSC)?
**A.** 127 kcal/mol and 83.7 kcal/mol

**Q.** And the “heat capacity change of unfolding” value (Thermal, DSC, transition: 3)?
**A.** 1.67 kcal/mol/K and 2.15 kcal/mol/K
